Legend:
刺突S-鼠Fc融合蛋白 (S-mFc) = 刺突S-鼠Fc融合蛋白 (S-mFc) (SARS-CoV-2; mouse, UniProt P0DTC2 14-1213); test: flow cytometry, blocking of S-mFc binding to 293T-ACE2 cells
[1] = target: T1, SARS-CoV-2 S1蛋白 (ACRO Biosystems) (SARS-CoV-2, UniProt P0DTC2 16-685); test: competition ELISA, S1 coated, competitor HRP-labelled hACE2-Fc
T1 construct: domain: S1; also called SARS-CoV-2S1抗原; 生物素化SARS-CoV-2S1

[2] = target: T1, SARS-CoV-2 S1蛋白 (ACRO Biosystems); test: BLI, biotinylated SARS-CoV-2 S1 on SA sensor, antibody as analyte, 1:1 fit

B1: 人源化抗体hS1B-73-3 (antibody, V domains shown)
VH: EVQLVQSGAEVKKPGSSVKVSCKASGYAFTNFLIEWVREAPGQGLEWIGMINPGSGDTNYNEKFKGKATLTADKSTSTVYMELSSLRSEDTAVYFCARQLGLPGFVYWGRGTTVTVSS
VL: DIQMTQSPSSLSASVGDRVTITCKASQDINSYLTWLQQKPGKSPKTLIYRANRLVEGVPSRFSGSGSGQDFTLKISSLQPEDIATYYCLQHDEFPLTFGQGTKLEIKR
notes: also called 抗SARS-CoV-2S1 RBD人源化抗体hS1B-73-3
IC50 (刺突S-鼠Fc融合蛋白 (S-mFc)): 0.00433 µg/mL
EC50 [1]: 0.0254 µg/mL
Kd [2]: 0.0207 nM
koff [2]: 2.22e-05 s⁻¹
kon [2]: 1.07e+06 M⁻¹ s⁻¹

— CN114106161A (ANYUAN MEDICINE SCIENCE AND TECH SHANGHAI LIMITED COMPANY, dated 2022)
